Reference: paper PMC11326647, “In vitro reconstitution reveals membrane clustering and RNA recruitment by the enteroviral AAA+ ATPase 2C” (PLOS Pathogens, 2023)

Columns and labels:
mass photometry = target: the molecule itself; assay: mass photometry
[1] = target: the molecule itself; assay: cryo-electron tomography (mass from the volume of segmented densities)
[2] = target: 2C (MBP removed by TEV in situ, bound to SUVs) (Poliovirus type 1 Mahoney, UniProt P03300 1128-1456); assay: SUV co-flotation, TET fluorescence; conditions: protein: recombinant; tags: His6-MBP cleaved by TEV during assay; chain copies: 6; label: 5' TET on strand 1; blunt

B1: His6-MBP-tagged full-length poliovirus 2C (residues 1-329) (natural protein)
chain: GDSWLKKFTEACNAAKGLEWVSNKISKFIDWLKEKIIPQARDKLEFVTKLRQLEMLENQISTIHQSCPSQEHQEILFNNVRWLSIQSKRFAPLYAVEAKRIQKLEHTINNYIQFKSKHRIEPVCLLVHGSPGTGKSVATNLIARAIAERENTSTYSLPPDPSHFDGYKQQGVVIMDDLNQNPDGADMKLFCQMVSTVEFIPPMASLEEKGILFTSNYVLASTNSSRISPPTVAHSDALARRFAFDMDIQVMNEYSRDGKLNMAMATEMCKNCHQPANFKRCCPLVCGKAIQLMDKSSRVRYSIDQITTMIINERNRRSNIGNCMEALFQ
notes: also called MBP-2C; His6MBP-2C
stoichiometry N (mass photometry): ~6

B2: full-length poliovirus 2C, MBP tag cleaved off in the presence of liposomes (membrane-bound 2C) (natural protein)
chain: GDSWLKKFTEACNAAKGLEWVSNKISKFIDWLKEKIIPQARDKLEFVTKLRQLEMLENQISTIHQSCPSQEHQEILFNNVRWLSIQSKRFAPLYAVEAKRIQKLEHTINNYIQFKSKHRIEPVCLLVHGSPGTGKSVATNLIARAIAERENTSTYSLPPDPSHFDGYKQQGVVIMDDLNQNPDGADMKLFCQMVSTVEFIPPMASLEEKGILFTSNYVLASTNSSRISPPTVAHSDALARRFAFDMDIQVMNEYSRDGKLNMAMATEMCKNCHQPANFKRCCPLVCGKAIQLMDKSSRVRYSIDQITTMIINERNRRSNIGNCMEALFQ
notes: also called full-length 2C
stoichiometry N [1]: ~6

B3: dsRNA 20-mer (oligos 1+2) (dsRNA)
RNA 1: CCUCUAACCACAGUCUGAUC
RNA 2: GAUCAGACUGUGGUUAGAGG
binding result [2]: binds
